Patent publication US20230002480A1

Experiments:
Test in all cases: cell-based or functional assay
[1] = target: HIV-1 Env of pseudovirus 3817.v2.c59 (HIV-1)
[2] = target: HIV-1 Env of pseudovirus HIV-16055-2.3 (HIV-1)
[3] = target: HIV-1 Env of pseudovirus 235-47 (HIV-1)
[4] = target: HIV-1 Env of pseudovirus CNE20 (HIV-1)
[5] = target: HIV-1 Env of pseudovirus ZM109F.PB4 (HIV-1)
[6] = target: HIV-1 Env of pseudovirus A07412M1.vrc12 (HIV-1)
[7] = target: HIV-1 Env of pseudovirus X1632_S2_B10 (HIV-1)
[8] = target: HIV-1 Env of pseudovirus Ce1086_B2 (HIV-1)
[9] = target: HIV-1 Env of pseudovirus 6540.v4.c1 (HIV-1)
[10] = target: HIV-1 Env of pseudovirus X2131_C1_B5 (HIV-1)
[11] = target: HIV-1 Env of pseudovirus Ce704809221_1B3 (HIV-1)
[12] = target: HIV-1 Env of pseudovirus ZM233M.PB6 (HIV-1)
[13] = target: HIV-1 Env of pseudovirus 0260.v5.c36 (HIV-1)
[14] = target: HIV-1 Env of pseudovirus X1254_c3 (HIV-1)
[15] = target: HIV-1 Env of pseudovirus Ce1176_A3 (HIV-1)
[16] = target: HIV-1 Env of pseudovirus BJOX028000.10.3 (HIV-1)
[17] = target: HIV-1 Env of pseudovirus Du172.17 (HIV-1)
[18] = target: HIV-1 Env of pseudovirus Ce0393_C3 (HIV-1)
[19] = target: HIV-1 Env of pseudovirus SC05_8C11_2344 (HIV-1)
[20] = target: HIV-1 Env of pseudovirus X2088_c9 (HIV-1)
[21] = target: HIV-1 Env of pseudovirus CNE30 (HIV-1)
[22] = target: HIV-1 Env of pseudovirus 6041.v3.c23 (HIV-1)
[23] = target: HIV-1 Env of pseudovirus 231965.c01 (HIV-1)
[24] = target: HIV-1 Env of pseudovirus CNE5 (HIV-1)
[25] = target: HIV-1 Env of pseudovirus 1054_07_TC4_1499 (HIV-1)
[26] = target: HIV-1 Env of pseudovirus ZM214M.PL15 (HIV-1)
[27] = target: HIV-1 Env of pseudovirus 62357_14_D3_4589 (HIV-1)
[28] = target: HIV-1 Env of pseudovirus ZM197M.PB7 (HIV-1)
[29] = target: HIV-1 Env of pseudovirus C3347.c11 (HIV-1)
[30] = target: HIV-1 Env of pseudovirus Ce0682_E4 (HIV-1)
[31] = target: HIV-1 Env of pseudovirus 6952.v1.c20 (HIV-1)
[32] = target: HIV-1 Env of pseudovirus BJOX025000.01.1 (HIV-1)
[33] = target: HIV-1 Env of pseudovirus ZM53M.PB12 (HIV-1)
[34] = target: HIV-1 Env of pseudovirus CNE58 (HIV-1)
[35] = target: HIV-1 Env of pseudovirus SC422661.8 (HIV-1)
[36] = target: HIV-1 Env of pseudovirus 6480.v4.c25 (HIV-1)
[37] = target: HIV-1 Env of pseudovirus 3365.v2.c2 (HIV-1)

## PGT151 (antibody)
[1]
  IC50, titer in TZM.bl cells: > 50 µg/mL
  IC80, titer in TZM.bl cells: > 50 µg/mL
[2]
  IC50: 0.143 µg/mL
  IC80: > 50 µg/mL
[3]
  IC50, titer in TZM.bl cells: 38.1 µg/mL
  IC80, titer in TZM.bl cells: > 50 µg/mL
[4]
  IC50: > 50 µg/mL
  IC80: > 50 µg/mL
[5]
  IC50: 0.609 µg/mL
  IC80: > 50 µg/mL
[6]
  IC50, titer in TZM.bl cells: 0.246 µg/mL
  IC80, titer in TZM.bl cells: > 50 µg/mL
[7]
  IC50, titer in TZM.bl cells: 0.061 µg/mL
  IC80, titer in TZM.bl cells: > 50 µg/mL
[8]
  IC50: 2.65 µg/mL
  IC80: > 50 µg/mL
[9]
  IC50, titer in TZM.bl cells: 0.006 µg/mL
  IC80, titer in TZM.bl cells: 0.03 µg/mL
[10]
  IC50, titer in TZM.bl cells: 0.007 µg/mL
  IC80, titer in TZM.bl cells: 0.036 µg/mL
[11]
  IC50: > 50 µg/mL
  IC80: > 50 µg/mL
[12]
  IC50: 0.027 µg/mL
  IC80: 5.16 µg/mL
[13]
  IC50: 0.427 µg/mL
  IC80: > 50 µg/mL
[14]
  IC50, titer in TZM.bl cells: 0.309 µg/mL
  IC80, titer in TZM.bl cells: > 50 µg/mL
[15]
  IC50: 0.006 µg/mL
  IC80: 0.018 µg/mL
[16]
  IC50, titer in TZM.bl cells: > 50 µg/mL
  IC80, titer in TZM.bl cells: > 50 µg/mL
[17]
  IC50: 0.003 µg/mL
  IC80: 0.013 µg/mL
[18]
  IC50: > 50 µg/mL
  IC80: > 50 µg/mL
[19]
  IC50: 0.06 µg/mL
  IC80: > 50 µg/mL
[20]
  IC50, titer in TZM.bl cells: > 50 µg/mL
  IC80, titer in TZM.bl cells: > 50 µg/mL
[21]
  IC50: > 50 µg/mL
  IC80: > 50 µg/mL
[22]
  IC50, titer in TZM.bl cells: 0.004 µg/mL
  IC80, titer in TZM.bl cells: 0.024 µg/mL
[23]
  IC50, titer in TZM.bl cells: < 0.001 µg/mL
  IC80, titer in TZM.bl cells: 0.012 µg/mL
[24]
  IC50, titer in TZM.bl cells: > 50 µg/mL
  IC80, titer in TZM.bl cells: > 50 µg/mL
[25]
  IC50: 0.008 µg/mL
  IC80: 0.032 µg/mL
[26]
  IC50: 0.008 µg/mL
  IC80: 0.045 µg/mL
[27]
  IC50: 0.004 µg/mL
  IC80: 0.023 µg/mL
[28]
  IC50: 0.003 µg/mL
  IC80: 0.033 µg/mL
[29]
  IC50, titer in TZM.bl cells: > 50 µg/mL
  IC80, titer in TZM.bl cells: > 50 µg/mL
[30]
  IC50: > 50 µg/mL
  IC80: > 50 µg/mL
[31]
  IC50, titer in TZM.bl cells: 49.2 µg/mL
  IC80, titer in TZM.bl cells: > 50 µg/mL
[32]
  IC50, titer in TZM.bl cells: > 50 µg/mL
  IC80, titer in TZM.bl cells: > 50 µg/mL
[33]
  IC50: > 50 µg/mL
  IC80: > 50 µg/mL
[34]
  IC50: 0.004 µg/mL
  IC80: 0.016 µg/mL
[35]
  IC50: 0.005 µg/mL
  IC80: 0.028 µg/mL

## N49P11 (antibody)
[1]
  IC50: 4.72 µg/mL
  IC80: 15.9 µg/mL
  MPI: 100
[3]
  IC50: 3.88 µg/mL
  IC80: 21.2 µg/mL
  MPI: 100
[6]
  IC50: 2.52 µg/mL
  IC80: 12.9 µg/mL
  MPI: 100
[7]
  IC50: 9.73 µg/mL
  IC80: 26.1 µg/mL
  MPI: 100
[9]
  IC50: 3.05 µg/mL
  IC80: 16.3 µg/mL
  MPI: 100
[10]
  IC50: 5.36 µg/mL
  IC80: 18.4 µg/mL
  MPI: 100
[13]
  IC50: 0.438 µg/mL
  IC80: 1.47 µg/mL
  MPI: 100
[14]
  IC50: 5.99 µg/mL
  IC80: 20.7 µg/mL
  MPI: 100
[16]
  IC50: 5.33 µg/mL
  IC80: 46.7 µg/mL
  MPI: 100
[20]
  IC50: 6.82 µg/mL
  IC80: 22 µg/mL
  MPI: 100
[22]
  IC50: 4.42 µg/mL
  IC80: 17.6 µg/mL
  MPI: 100
[23]
  IC50: 9.78 µg/mL
  IC80: 24.2 µg/mL
  MPI: 100
[36]
  IC50: 0.227 µg/mL
  IC80: 1.03 µg/mL
  MPI: 100
[29]
  IC50: 0.055 µg/mL
  IC80: 0.192 µg/mL
  MPI: 100
[31]
  IC50: 6.57 µg/mL
  IC80: 22.7 µg/mL
  MPI: 100
[32]
  IC50: 0.361 µg/mL
  IC80: 2.58 µg/mL
  MPI: 100
[37]
  IC50: 0.064 µg/mL
  IC80: 0.452 µg/mL
  MPI: 100

## N49P6 (antibody)
[1]
  IC50: 16.9 µg/mL
  IC80: > 50 µg/mL
  MPI: 78
[2]
  IC50: 0.117 µg/mL
  IC80: 0.586 µg/mL
  MPI: 100
[3]
  IC50: 13 µg/mL
  IC80: 46.4 µg/mL
  MPI: 82
[4]
  IC50: 2.74 µg/mL
  IC80: 15.6 µg/mL
  MPI: 95
[5]
  IC50: 0.084 µg/mL
  IC80: 0.29 µg/mL
  MPI: 99
[6]
  IC50: 0.229 µg/mL
  IC80: 0.786 µg/mL
  MPI: 100
[7]
  IC50: 23.1 µg/mL
  IC80: > 50 µg/mL
  MPI: 69
[8]
  IC50: 0.581 µg/mL
  IC80: 4.09 µg/mL
  MPI: 98
[9]
  IC50: 14 µg/mL
  IC80: 47.5 µg/mL
  MPI: 81
[10]
  IC50: 0.174 µg/mL
  IC80: 0.72 µg/mL
  MPI: 100
[11]
  IC50: 1.67 µg/mL
  IC80: 12.8 µg/mL
  MPI: 97
[12]
  IC50: 1.23 µg/mL
  IC80: 4 µg/mL
  MPI: 99
[13]
  IC50: 0.485 µg/mL
  IC80: 1.55 µg/mL
  MPI: 100
[14]
  IC50: 15.7 µg/mL
  IC80: 34.2 µg/mL
  MPI: 91
[15]
  IC50: 0.594 µg/mL
  IC80: 2.11 µg/mL
  MPI: 100
[16]
  IC50: 6.68 µg/mL
  IC80: > 50 µg/mL
  MPI: 77
[17]
  IC50: 20.8 µg/mL
  IC80: > 50 µg/mL
  MPI: 74
[18]
  IC50: 0.608 µg/mL
  IC80: 3.25 µg/mL
  MPI: 100
[19]
  IC50: 0.266 µg/mL
  IC80: 0.911 µg/mL
  MPI: 100
[20]
  IC50: 27 µg/mL
  IC80: > 50 µg/mL
  MPI: 65
[21]
  IC50: 0.457 µg/mL
  IC80: 1.54 µg/mL
  MPI: 100
[22]
  IC50: 5.53 µg/mL
  IC80: 43.2 µg/mL
  MPI: 88
[23]
  IC50: 9.24 µg/mL
  IC80: 39.4 µg/mL
  MPI: 87
[36]
  IC50: 0.089 µg/mL
  IC80: 0.427 µg/mL
  MPI: 100
[25]
  IC50: 0.624 µg/mL
  IC80: 2.85 µg/mL
  MPI: 100
[26]
  IC50: 0.51 µg/mL
  IC80: 1.8 µg/mL
  MPI: 100
[27]
  IC50: 0.098 µg/mL
  IC80: 0.296 µg/mL
  MPI: 100
[28]
  IC50: 3 µg/mL
  IC80: 12.4 µg/mL
  MPI: 98
[29]
  IC50: 0.08 µg/mL
  IC80: 0.266 µg/mL
  MPI: 100
[30]
  IC50: 0.095 µg/mL
  IC80: 0.315 µg/mL
  MPI: 100
[31]
  IC50: 16.9 µg/mL
  IC80: > 50 µg/mL
  MPI: 78
[32]
  IC50: 14.9 µg/mL
  IC80: > 50 µg/mL
  MPI: 78
[37]
  IC50: 0.129 µg/mL
  IC80: 0.347 µg/mL
  MPI: 100
[33]
  IC50: 0.538 µg/mL
  IC80: 1.71 µg/mL
  MPI: 100
[34]
  IC50: 0.036 µg/mL
  IC80: 0.1 µg/mL
  MPI: 100
[35]
  IC50: 0.129 µg/mL
  IC80: 0.36 µg/mL
  MPI: 100
